For the experiment, the target named is His-Tagged FcRn (UniProt P55899). The experiment can be described thus: SPR; His-tagged FcRn captured on an anti-His IgG1 antibody CM5 chip; antibody samples as analyte at 15, 5 and 1.66 nM in HBS-EP pH 6.0, 30 µL/min, 22 °C; steady-state model (the same data also fitted with a two-state model); mean of at least 5 measurements. (SPR reads the build-up and loss of mass on a sensor chip optically.)

Values joined by “and” are separate entries in the source; they are usually repeats but may differ in a detail not shown here. Equal entries are not always repeated.

Chain of UniProt P55899 (P55899 24-297): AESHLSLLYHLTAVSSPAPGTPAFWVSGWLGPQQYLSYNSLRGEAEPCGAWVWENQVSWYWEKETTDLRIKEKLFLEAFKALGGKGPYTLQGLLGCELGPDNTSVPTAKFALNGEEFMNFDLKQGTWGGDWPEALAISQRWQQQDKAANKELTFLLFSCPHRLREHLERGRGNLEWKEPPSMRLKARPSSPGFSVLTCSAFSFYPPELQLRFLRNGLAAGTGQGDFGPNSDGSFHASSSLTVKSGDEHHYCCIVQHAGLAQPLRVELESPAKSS

The term Kd denotes the concentration at which binding is half-saturated. High values mean weaker binding, low ones tighter binding. For “Avastin (unfractionated innovator product) (antibody)”, the dissociation constant (Kd) is 25 nM and 22.7 nM.

The values above are taken from paper PMC9415858.
